Data from patent US20040154051A1 (SYNGENTA PARTICIPATIONS, published 2004).

Target: T1, NIM450 bait (first 450 amino acids of the NIM1 protein, LexA fusion) (Arabidopsis, UniProt P0A7C2 1-202; P93002 1-450)
T1 construct: The LexA fusion is stated outright only for the full-length bait
T1 sequence (looked up): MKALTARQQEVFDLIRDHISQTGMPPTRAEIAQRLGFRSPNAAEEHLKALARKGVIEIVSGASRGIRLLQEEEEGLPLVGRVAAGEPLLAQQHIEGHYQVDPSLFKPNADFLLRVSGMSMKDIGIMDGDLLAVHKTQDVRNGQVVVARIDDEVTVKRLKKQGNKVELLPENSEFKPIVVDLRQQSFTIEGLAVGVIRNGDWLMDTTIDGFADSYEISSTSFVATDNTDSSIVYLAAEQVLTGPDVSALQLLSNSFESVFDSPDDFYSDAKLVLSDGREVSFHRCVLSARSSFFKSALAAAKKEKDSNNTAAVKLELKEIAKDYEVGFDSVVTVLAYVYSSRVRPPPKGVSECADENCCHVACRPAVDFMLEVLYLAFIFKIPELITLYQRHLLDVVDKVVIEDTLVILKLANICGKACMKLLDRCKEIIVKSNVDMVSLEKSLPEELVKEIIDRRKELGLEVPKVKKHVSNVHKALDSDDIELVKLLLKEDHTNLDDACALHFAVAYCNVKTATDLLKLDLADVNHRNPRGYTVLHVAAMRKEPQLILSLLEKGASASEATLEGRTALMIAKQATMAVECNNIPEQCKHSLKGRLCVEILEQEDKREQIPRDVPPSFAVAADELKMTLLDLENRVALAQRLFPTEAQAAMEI
Test: yeast two-hybrid (LexA bait, B42 prey; Leu2 and LacZ reporters)
Protocol: These baits are transformed into yeast strain EGY188, which contains a low sensitivity LexA operator fused to the Leu2 gene, and appropriate tests are performed to determine whether the NIM1 fusion proteins intrinsically activate expression of the yeast reporter genes. […] The library is transformed in combination with one of the three NIM1 baits above and a plasmid containing 2 LexA operators fused to LacZ as a secondary reporter. Approximately 10⁶ transformants are analyzed in screens with each bait, and individual clones that activate both the Leu2 and LacZ reporters are isolated and sequenced by standard procedures.

B1: NI16 clone (Arabidopsis NI16 cDNA clone from the pJG4-5 library, fused to the B42 transcriptional activation domain) (other, not shown: large carriers)
chain: MNNSLKKEERVEEDNGKSDGNRGKPSTEVVRTVTEEEVDEFFKILRRVHVATRTVAKVNGGVAEGELPSKKRKRSQNLGLRNSLDCNGVRDGEFDEINRVGLQGLGLDLNCKPEPDSVSLSL
notes: also called NI16 protein
B1: no binding.
